Experimental data reported in PMC10897489 (2024).

Molecular target: reported 23mer NSP3 peptide from alphaviruses
Experiment: ITC

B1: FXR1 1–122 (domain or fragment)
chain: not shown
Kd: 19.4 µM
